Data reported in the nanobody polyreactivity screen of Harvey et al. (2022).

Assay: yeast display, Sf9 membrane polyspecificity reagent, FACS + sequencing; frameworks hold sequencing errors
Procedure, shortened: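 A nanobody's polyreactivity label depends on the gate it was sorted from. Yeast display cells were stained with 10% biotinylated, detergent-solubilized Sf9 membrane reagent for 1 hour at 4 °C, enriched on streptavidin microbeads and sorted by FACS. The low and high (top ~1%) gates were set on anti-HA fluorescence for expression and streptavidin fluorescence for reagent binding.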

| Sequence | polyreactivity (PSR sort gate) |
| --- | --- |
| QVQLVESGGCLVQAGGSLRLSCAASGRIFYGNTMGCYRQAPGKESELVATITRSGGSTYYADSVKGRFTISRDNAKNTVYLQMNNLKPEDTAVYYCAVGYWRLFPYGYWGQGTQVTVSS | high polyreactivity |
| QVQLVESGGCLVQAGGSLRLSCAASGRIVYPYAMGWYRQAPGKERELVAAISSSGGSTYYADSVKGRFTISRDNAKNTVYLQMNSLKPDDTAVYYCAAQEFQKRLGGSWCRYDYWGQGTQVNVSS | high polyreactivity |
| QVQLVESGGCLVQAGGSLRLSCAASGRTFAWYAMGWYRQAPGKERELVAAISSGGSTYYADSVKGRFTISRDNAKNTVYLQMDSLKPEDTAVYYCAAEWHYIYAYDYWGQGTQVTVSS | low polyreactivity |
| QVQLVESGGCLVQAGGSLRLSCAASGRTFAWYAMGWYRQAPGKERELVAAITNGGSTYYADSVKGRFTISRDNAKNTVYLQMNSLKPDDTAVYYCAAYYRSRHHGYDSWGQGTQVTVSS | low polyreactivity |
| QVQLVESGGCLVQAGGSLRLSCAASGRTFAYYAMGWYRQAPGKERELVAAITRGGSTYYADSVKGRFTISRDNAKNTVYLQMNSLKPEDTAVYYCAADTSPYQDDYWGQGTQVTVSS | low polyreactivity |
| QVQLVESGGCLVQAGGSLRLSCAASGRTFDINDMGWYRQAPGKEREFVAAIDRSGGNTYYADSVKGRFIISRDNAKNTVYLQMNSLKPEDTAVYYCAADSPYVVAWPYVWYFTFDYWGQGTQVTVTS | low polyreactivity |
| QVQLVESGGCLVQAGGSLRLSCAASGRTFNRYAMGWYRQAPGKERELVAAITRRGGSTYYADSVKGRFTISRDNAKNTVYLQMNSLKPEDTAVYYCATDTYYSDYGSWGQGTQVTVSS | high polyreactivity |
| QVQLVESGGCLVQAGGSLRLSCAASGRTFPLYAMGWYRQAPGKERELVASITNGGNTNYADSVKGRFTISRDNEKNTVYLQMNSLKPEDTAVYYCAAQTFGYGFGGGDYWGQGTQVTVSS | low polyreactivity |
| QVQLVESGGCLVQAGGSLRLSCAASGRTFRHYGMGWYRPAPRKERELVAAISRSGGRTYYADSVKGRFTISRDNAKNTVYLQMNSLKPEDTAVYYCNAPYDVTTYAFDYWGQGTQVTVSS | high polyreactivity |
| QVQLVESGGCLVQAGGSLRLSCAASGRTFYFYAMGWYRQAPGKERELVASISWSGGRTNYADSVKGRFTSSRDNAKNTVYLQMNSLKPEDTAVHYCAARYVERHTDYYYWGQGTQVTVSS | low polyreactivity |
| QVQLVESGGCLVQAGGSLRLSCAASGRTSVIYAMGWYRQAPGKERELVASIRRGGSTSYADSVKGRFTISRDNAKNTVYLQMNSLKPEDTAVYYCAADRYTWRKSYDYWGQGTQVTVSS | high polyreactivity |
| QVQLVESGGCLVQAGGSLRLSCAASGSIFAYYAMGWYRQAPGKERELVAAITSGDSTYYADSVKGRFTISRDNAKNTVYLQMNSLKPEDTAVYYCAADHIWFYFYLYDYWGQGTQVTVSS | low polyreactivity |
| QVQLVESGGCLVQAGGSLRLSCAASGSIFGANTMGWYRQAPGKESELVAAISSGGNTYYADSVKGRFTISRDNAKNTVYLQMNSLKPEDTAVYYCNAQTRYRYQYGFLGGTGYNYWGQGTQVTVSS | low polyreactivity |
| QVQLVESGGCLVQAGGSLRLSCAASGSIFRYNIGWYRQAPGKERELVAAISSSGVRTYYADSVKGRFTISRDNAKNTVYLQMNSLKPEDTAVYYCAAASGGRWRVGYWGQGTQVTVSS | high polyreactivity |
| QVQLVESGGCLVQAGGSLRLSCAASGSIFRYYVMGWYRQAPGKERELVAAISSRGGSTYYADSVKGRFTISRDNAKNTVYLQMNSLKPEDTAVYYCAAYRAYSTAVGMEYWGQGTQVTVSS | high polyreactivity |
| QVQLVESGGCLVQAGGSLRLSCAASGSIFYNNAMGWYRQAPGKERELVASSTGGGSTYADSVKGRFTISRDNAKNRVYVQMNSLKPEDTAVYYCAVGRYFVRYDYWGQGSQVTVSS | low polyreactivity |
| QVQLVESGGCLVQAGGSLRLSCAASGSIIGLYPMGWSRQAPGKERELVAAITQSAGSTYYADSVKGRFTISRDNALNTVFLQMNSLKPEDTAVYYCAAVWAYYGYESDYWGQGTQVTVSS | low polyreactivity |
| QVQLVESGGCLVQAGGSLRLSCAASGSTFDINAMGWYRQAPGKESELVASITFSGGSTYYADSVKGRFTISRDNAKNTVYLQMNSLKPEDTAVYYCAADSSGEYPGGYWGQGTQVTVTS | low polyreactivity |
| QVQLVESGGCLVQAGGSLRLSCAASGSTFGGNAMGWYRQAPGKERELVAAISTSGGSTYYADSVKGRFTISRDNAKNTVYLQMNSLKPEDTAVYYCNAVRIGGAPRSRFYDWGQCTQVTVSS | high polyreactivity |
| QVQLVESGGCLVQAGGSLRLSCAASGSTFHYNAMGWYRQAPGKERELVATISWSGGSTYYADSVKGRFTISRDNAKNTVYLQMNSLKPEDTAVYYCAARYSGYRGSFYGRHGGKYYYWGQGTQVTVSS | high polyreactivity |
| QVQLVESGGCLVQAGGSLRLSCAASGSTFPAYAMGWYRPAPGKERELVAAISRSGGSTYYADSVKGRFTISRDNAKNTVYLQMNSLKPEDTAVYYCAARAAYSYDDGYWGQGTQVTVSS | high polyreactivity |
| QVQLVESGGCLVQAGGSLRLSCAASGSTFWSYAMGLYRQAPGKARELVAVIYRGGSTNYADSVKGRFTISRDNAKNTVYVQMNSLKREDTAVYYCASRYKTAEYYYWGQGTQVTVSS | high polyreactivity |

| Sequence | polyreactivity (PSR sort gate) |
| --- | --- |
| QVQLVESGGCLVQAGGSLRLSCAASGSTIYAMGWYRQAPGKERELVAGINRSGTRTYYADSVKGRFTISRDNAKNTVYLQMNSLKPEDTAVYYCAALVYRPTYGYIFDYWGQGTQVTVSS | high polyreactivity |
| QVQLVESGGCLVQAGGSLRLSCASSGRTFRRYTMGWYRQAPGKETELVAAITSGGRTNYADSVKGRFTISRDNAKNTVYLQMNSLKPEDTAVYYCNAQNEIWRVTFSPYDRWGYDYWGQGTQVTVSS | low polyreactivity |
| QVQLVESGGCLVQAGGSLRLSCASSGSTIGGYAMGWYRQAPGKERELVAAITWNGGRTYYADSVKGRFTISRDNAKNTVYVQMTSLKQEDTAVYYCATLNLSRSKRVSGGGYWGQGTQVTVSS | high polyreactivity |
| QVQLVESGGCLVQAGGSLRLSCASTGSIIYWYTMGWYRQAHGKDRELVAASSSIDGNTYYADSVKGRFTISRDNAKNTVYLQMNSLKPEDTAVYYCPAAYYNTDYYYWGQGTQVTVSS | low polyreactivity |
| QVQLVESGGCLVQAGGSLRLSSAASGRTFRYYAMGSYRQAPGKERELVAAITVTVTSTFYADSVKGRFTISRDNAKNTVYLQMNSLKPEDTAVYYCAVPGATSYFPDDSWGQGTQVTVSS | low polyreactivity |
| QVQLVESGGCLVQAGGSQRLSCAASGIIFEGYAMRWYRQAPGRERELVAAISQSGGSTRYADSVKGRFTISRDNAKNTVYLQMNRLKAEDTAVYYCAKEVWNWGPYYYWGQGSQVTVSS | low polyreactivity |
| QVQLVESGGCLVQAGGTLRLSGAASGRTFRADGMGWCRQPPGKEWELVAVISWRDGSTFYADSVQGRFTISRDTAKNTVYLQMNSLKPEDTAVYYCNKASQLYYIQGTYSYGYWGQGTQVTVSS | low polyreactivity |
| QVQLVESGGCLVQEGGSLRLSCAASGITFYLYAMGWYSQGPGKERELVATISRSGGSTYADSVKGRFTISRDNAKNNVYLQRNSLKPEDTAVDYCNADGWYGYWGQGTQVTVSS | low polyreactivity |
| QVQLVESGGCLVQEGGSLRLSCAASGSTVTYYDMGWYRQAPGKERELVATIDSTTRTYYADSVKGRFTISRDNAKNTVYLQMNSLKPEDTAVYYCAADMTWGYFYYLFYRYDYWGKGTQVTVSS | low polyreactivity |
| QVQLVESGGDLVQAGGSLRLSCAASGSIFYINAMGWYRQAPGKERELVASISYSGTSTYYADSVKGRFTISRDNAKNTFFLQMNSLKPEDTAVYYCNAEDTAGAGDGYWGEGTQVTVSS | low polyreactivity |
| QVQLVESGGDLVQAGGSLRLSCAATGFTFDYYAMGWYRQAPGKEREFVAAISRSGGRTYYADSVKGRFTISRDNAKNTVYLQMNSLKQEDTAVYYCAAGFVGERFDYWGQGTQVTVSS | high polyreactivity |
| QVQLVESGGDLVQAGGSLRLSCGASGFIFDGYAMGWYRQAPGKERELVAAISSSGGRTHYADSVKGRFKISRDNAMNTVYLQMNSLKAEDTAVYYCAATVRGKRSTYDYWGQGTQVTVSS | high polyreactivity |
| QVQLVESGGFLVQAGGSLRLSCAASGFTFAKYAMGWSRQAPRKERELVAVITSSGGRTYYADSVKARFTISRDTAKNTVYLQMISLKPEDTAVYYCNAGKYVYATSQYDYWGQGTQVTVSS | high polyreactivity |
| QVQLVESGGFLVQAGGSLRLSCAASGSTSYNYVMGWYRQAPRKERELVAGITWSDDITYYADSVKGRFSISRDNAKNTVYLQMNSLKPEDTAVYYCAAEDGPLYWRFPDEMDYWGQGTQVTVSS | low polyreactivity |
| QVQLVESGGGEVQAGGSLRLSCAASGSIFRFYTMGWSRQAPGTERELVATLARGGSTNYADSVKGRFTISRDTAKNTVYLQMNSLKPEDTAVYYCNVAALYSTYCGYGYDYSGQGTQVTVSS | high polyreactivity |
| QVQLVESGGGEVQEGGILRLSCAASGSIFSRNSMGWYRQAPGKDRELVAAITWSGGSTYYADSVKGRFTISRDNAKYTVYLLMNSLKPEDTAVYYCNADFAGTPNQYDYWGQGTQVTVSA | high polyreactivity |
| QVQLVESGGGFDHAGGSLRLSCAAYGSTFVYNAMGWYRQAPGKERELVAAITSTGGNTDYADSVKGRFTISRDNAKNTVYLQMNSLKPEDTAVYYCNARDYYWLGFTYRFDYWGQGTQVTVSS | low polyreactivity |
| QVQLVESGGGFVQAGASLRLSCAASGRTFYRYAMGWYRQAPGKERQLVAAINWRGGSTSYADSVKGRFTISRDNAKNTVYLQMNSLIPEDTAVYYCNAKFICWYEKGGCNVSKYEYWGQGTQVTVSS | low polyreactivity |
| QVQLVESGGGFVQAGGSLRISCAASGRTFYPYAMGWYRQAPGKERELVAAISRSGGGTYYADSVKGRFTISRDNAKNTVYLQMNSLKPEDTAVDYCAADDGVAIYDYWGQGTQVTVSS | low polyreactivity |
| QVQLVESGGGFVQAGGSLRLICAASGSIDYNAMGWYRQAPGKERELVAAITQRGGRTYYADSVKGRFTISRDNAKNTVYLQMNSLKPEDTAVYYCNTKGNYGLGYKNYYWGQGTQVTVSS | high polyreactivity |
| QVQLVESGGGFVQAGGSLRLSCAASGFTFRYYAMGWYRQAPGKERELVAAISRGGNTYYADSVKGRFTMSRDNAKNTVYLQMNSLKPEDTAVYFCNSAYLYIARHGYWGQGTQVTVSS | high polyreactivity |
